In PMC4299515:

Key:
[1] = biological target: isolated chromoshadow-domain (CSD) of HP1β; assay: AUC; sedimentation velocity, c(s) distribution, 8–30 μM protein, physiological ionic strength; no larger complexes than the dimer up to 30 μM
[2] = biological target: full-length HP1β (heterochromatin protein 1 beta) (UniProt P83917); assay: as above
[3] = biological target: full-length HP1β (heterochromatin protein 1 beta) (UniProt P83917); assay: AUC; sedimentation velocity at lower concentrations (two peaks in c(s)); KD from the relative molar fractions of monomer and dimer; dimer to monomers; physiological ionic strength

Chain of full-length HP1β (heterochromatin protein 1 beta), P83917 1-185 (natural protein; other documents disagree on this pair) (P83917 whole entry): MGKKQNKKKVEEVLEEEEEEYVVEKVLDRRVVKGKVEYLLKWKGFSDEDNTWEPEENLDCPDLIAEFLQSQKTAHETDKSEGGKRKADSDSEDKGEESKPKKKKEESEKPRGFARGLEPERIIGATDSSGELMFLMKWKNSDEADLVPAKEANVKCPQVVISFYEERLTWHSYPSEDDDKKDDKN
Chain of isolated chromoshadow-domain (CSD) of HP1β (domain or fragment) (P83916 whole entry, the tested form may be a part): as the sequence (P83917 whole entry) above

stoichiometry N [1] | stoichiometry N [2] | Kd [3] [nM] | Substance
2 |  |  | isolated chromoshadow-domain (CSD) of HP1β (domain or fragment)
 | 2 | 1000 to 2000 | full-length HP1β (heterochromatin protein 1 beta), P83917 1-185 (natural protein; other documents disagree on this pair)
